According to article doi:10.1101/2021.08.28.458007v1:

B1: PgDHAR (Cenchrus americanus) (protein)
chain: MAVEVCVKAAVGAPDILGDCPFSQRVLLTLEEKKITYEMKLVDLSNKPEWFLKISPEGKVPVFNSGDGKWIADSDVITQVIEEKFPTPSLVTPPEYASVGSKIFPSFVKFLKSKDASDGSEKALLDELQALDEHLKAHGPYISGENVSAADLSLGPKLFHLQVALEHFKGWKIPENLTSVHAYTKALFSRESFVKTKPANQYLIAGWAPKVNA
B2: PgDHAR (Cenchrus americanus; K8A) (protein)
chain: MAVEVCVAAAVGAPDILGDCPFSQRVLLTLEEKKITYEMKLVDLSNKPEWFLKISPEGKVPVFNSGDGKWIADSDVITQVIEEKFPTPSLVTPPEYASVGSKIFPSFVKFLKSKDASDGSEKALLDELQALDEHLKAHGPYISGENVSAADLSLGPKLFHLQVALEHFKGWKIPENLTSVHAYTKALFSRESFVKTKPANQYLIAGWAPKVNA
B3: PgDHAR (Cenchrus americanus; D19A) (protein)
chain: MAVEVCVKAAVGAPDILGACPFSQRVLLTLEEKKITYEMKLVDLSNKPEWFLKISPEGKVPVFNSGDGKWIADSDVITQVIEEKFPTPSLVTPPEYASVGSKIFPSFVKFLKSKDASDGSEKALLDELQALDEHLKAHGPYISGENVSAADLSLGPKLFHLQVALEHFKGWKIPENLTSVHAYTKALFSRESFVKTKPANQYLIAGWAPKVNA
B4: HsGSTO1-1 (Homo sapiens) (protein)
chain: SGESARSLGKGSAPPGPVPEGSIRIYSMRFCPFAERTRLVLKAKGIRHEVININLKNKPEWFFKKNPFGLVPVLENSQGQLIYESAITCEYLDEAYPGKKLLPDDPYEKACQKMILELFSKVPSLVGSFIRSQNKEDYAGLKEEFRKEFTKLEEVLTNKKTTFFGGNSISMIDYLIWPWFERLEAMKLNECVDHTPKLKLWMAAMKEDPTVSALLTSEKDWQGFLELYLQNSPEACDYGL

Substrate: O=C1O[C@H]([C@@H](O)CO)C(=O)C1=O
Test: purified protein
[1] = co-substrate GSH (2 mM), 50 mM phosphate pH 6.8, 0.2 mM EDTA
[2] = co-substrate GSH, 50 mM phosphate pH 6.8, 0.2 mM EDTA

Protein | Km [1] | kcat [1] [s⁻¹] | Km [2] | kcat [2] [s⁻¹] | Km (co-substrate GSH, marked 'This study' (footnote a))
B1 | 159.2 (±11.4) μM | 2271.663 | – | – | –
B2 | – | – | 1842 (±414.3) μM | 89.34 | –
B3 | – | – | 245.7 (±75.7) μM | 20.35 | –
B4 | – | – | – | – | 138.2 (±27.07) μM
